In the supplement of paper PMC10567573:

B1: KCNG1 (parent)
chain: AVNLSVSTLPSLREEEEQVRAHAP

Variants of: B1
Experiment: protein stability index of a GFP-peptide fusion (GPS, HEK-293T) (PSI 1-6); higher = more stable
Details: c terminus: a fixed tail appended
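Also: lentivirally expressed fusions sorted by FACS into six bins by GFP to DsRed ratio, PSI derived from sequencing read proportions per bin multiplied by bin number.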

Row | Variant | protein stability index
1 | AVNLSVSTLPSIREEEEQVRAHAP [L12I] | 4.79
2 | AVNLSVSTLPSHREEEEQVRAHAP [L12H] | 5.17
3 | AVNLSVSTLPSWREEEEQVRAHAP [L12W] | 4.13
4 | AVNLSVSTLPSQREEEEQVRAHAP [L12Q] | 5.19
5 | AVNLSVSTLPSTREEEEQVRAHAP [L12T] | 5.38
6 | AVNLSVSTLPSPREEEEQVRAHAP [L12P] | 5.13
7 | AVNLSVSTLPSCREEEEQVRAHAP [L12C] | 4.42
8 | AVNLSVSTLPSEREEEEQVRAHAP [L12E] | 5.62
9 | AVNLSVSTLPSAREEEEQVRAHAP [L12A] | 5
10 | AVNLSVSTLPSKREEEEQVRAHAP [L12K] | 4.67
11 | AVNLSVSTLPSNREEEEQVRAHAP [L12N] | 5.11
12 | AVNLSVSTLPSDREEEEQVRAHAP [L12D] | 5.41
13 | AVNLSVSTLPSGREEEEQVRAHAP [L12G] | 5.21
14 | AVNLSVSTLPSVREEEEQVRAHAP [L12V] | 4.81
15 | AVNLSVSTLPSFREEEEQVRAHAP [L12F] | 4.59
16 | AVNLSVSTLPSRREEEEQVRAHAP [L12R] | 5.35
17 | AVNLSVSTLPSMREEEEQVRAHAP [L12M] | 4.88
18 | AVNLSVSTLPSYREEEEQVRAHAP [L12Y] | 4.77
19 | AVNLSVSTLPSSREEEEQVRAHAP [L12S] | 5.33
20 | AVNLSVSTLPSLRENEEQVRAHAP [E15N] | 4.61
21 | AVNLSVSTLPSLREREEQVRAHAP [E15R] | 4.76
22 | AVNLSVSTLPSLREPEEQVRAHAP [E15P] | 4.93
23 | AVNLSVSTLPSLREHEEQVRAHAP [E15H] | 4.42
24 | AVNLSVSTLPSLREVEEQVRAHAP [E15V] | 4.06

Row | Variant | protein stability index
25 | AVNLSVSTLPSLRESEEQVRAHAP [E15S] | 4.8
26 | AVNLSVSTLPSLREDEEQVRAHAP [E15D] | 5.05
27 | AVNLSVSTLPSLRECEEQVRAHAP [E15C] | 4.23
28 | AVNLSVSTLPSLREGEEQVRAHAP [E15G] | 4.59
29 | AVNLSVSTLPSLREAEEQVRAHAP [E15A] | 4.2
30 | AVNLSVSTLPSLREWEEQVRAHAP [E15W] | 3.52
31 | AVNLSVSTLPSLREYEEQVRAHAP [E15Y] | 3.64
32 | AVNLSVSTLPSLRETEEQVRAHAP [E15T] | 4.52
33 | AVNLSVSTLPSLREKEEQVRAHAP [E15K] | 4.82
34 | AVNLSVSTLPSLREMEEQVRAHAP [E15M] | 4.29
35 | AVNLSVSTLPSLREQEEQVRAHAP [E15Q] | 4.79
36 | AVNLSVSTLPSLREFEEQVRAHAP [E15F] | 3.52
37 | AVNLSVSTLPSLREIEEQVRAHAP [E15I] | 3.92
38 | AVNLSVSTLPSLRELEEQVRAHAP [E15L] | 3.42
39 | AVNLSVSTLPSLREEPEQVRAHAP [E16P] | 3.96
40 | AVNLSVSTLPSLREEKEQVRAHAP [E16K] | 4.46
41 | AVNLSVSTLPSLREEDEQVRAHAP [E16D] | 5.26
42 | AVNLSVSTLPSLREEMEQVRAHAP [E16M] | 3.56
43 | AVNLSVSTLPSLREEIEQVRAHAP [E16I] | 3.27
44 | AVNLSVSTLPSLREEAEQVRAHAP [E16A] | 4.48
45 | AVNLSVSTLPSLREEQEQVRAHAP [E16Q] | 4.27
46 | AVNLSVSTLPSLREEREQVRAHAP [E16R] | 4.18
47 | AVNLSVSTLPSLREEGEQVRAHAP [E16G] | 4.67
48 | AVNLSVSTLPSLREEFEQVRAHAP [E16F] | 3.59

Row | Variant | protein stability index
49 | AVNLSVSTLPSLREEHEQVRAHAP [E16H] | 4.49
50 | AVNLSVSTLPSLREENEQVRAHAP [E16N] | 4.26
51 | AVNLSVSTLPSLREECEQVRAHAP [E16C] | 4.26
52 | AVNLSVSTLPSLREELEQVRAHAP [E16L] | 3.82
53 | AVNLSVSTLPSLFEEEEQVRAHAP [R13F] | 4.78
54 | AVNLSVSTLPSLEEEEEQVRAHAP [R13E] | 5.25
55 | AVNLSVSTLPSLTEEEEQVRAHAP [R13T] | 5.25
56 | AVNLSVSTLPSLNEEEEQVRAHAP [R13N] | 5.3
57 | AVNLSVSTLPSLKEEEEQVRAHAP [R13K] | 4.85
58 | AVNLSVSTLPSLLEEEEQVRAHAP [R13L] | 4.77
59 | AVNLSVSTLPSLAEEEEQVRAHAP [R13A] | 5
60 | AVNLSVSTLPSLDEEEEQVRAHAP [R13D] | 5.15
61 | AVNLSVSTLPSLQEEEEQVRAHAP [R13Q] | 4.91
62 | AVNLSVSTLPSLYEEEEQVRAHAP [R13Y] | 4.67
63 | AVNLSVSTLPSLVEEEEQVRAHAP [R13V] | 4.81
64 | AVNLSVSTLPSLIEEEEQVRAHAP [R13I] | 4.68
65 | AVNLSVSTLPSLSEEEEQVRAHAP [R13S] | 5.2
66 | AVNLSVSTLPSLHEEEEQVRAHAP [R13H] | 4.99
67 | AVNLSVSTLPSLGEEEEQVRAHAP [R13G] | 4.55
68 | AVNLSVSTLPSLCEEEEQVRAHAP [R13C] | 4.99
69 | AVNLSVSTLPSLMEEEEQVRAHAP [R13M] | 5.03
70 | AVNLSVSTLPSLWEEEEQVRAHAP [R13W] | 4.77
71 | AVNLSVSTLPSLPEEEEQVRAHAP [R13P] | 5.67
72 | AVNLSVSTLPVLREEEEQVRAHAP [S11V] | 4.83

Row | Variant | protein stability index
73 | AVNLSVSTLPWLREEEEQVRAHAP [S11W] | 4.35
74 | AVNLSVSTLPYLREEEEQVRAHAP [S11Y] | 4.54
75 | AVNLSVSTLPTLREEEEQVRAHAP [S11T] | 4.84
76 | AVNLSVSTLPSLRFEEEQVRAHAP [E14F] | 3.56
77 | AVNLSVSTLPSLRPEEEQVRAHAP [E14P] | 4.8
78 | AVNLSVSTLPSLRDEEEQVRAHAP [E14D] | 4.96
79 | AVNLSVSTLPSLRIEEEQVRAHAP [E14I] | 4.37
80 | AVNLSVSTLPSLRTEEEQVRAHAP [E14T] | 4.54
81 | AVNLSVSTLPSLRAEEEQVRAHAP [E14A] | 4.39
82 | AVNLSVSTLPSLRYEEEQVRAHAP [E14Y] | 4.34
83 | AVNLSVSTLPSLRREEEQVRAHAP [E14R] | 4.24
84 | AVNLSVSTLPSLRMEEEQVRAHAP [E14M] | 4.11
85 | AVNLSVSTLPSLRHEEEQVRAHAP [E14H] | 4.56
86 | AVNLSVSTLPSLRNEEEQVRAHAP [E14N] | 4.46
87 | AVNLSVSTLPSLRKEEEQVRAHAP [E14K] | 4.3
88 | AVNLSVSTLPSLRQEEEQVRAHAP [E14Q] | 4.87
89 | AVNLSVSTLPSLRGEEEQVRAHAP [E14G] | 4.56
90 | AVNLSVSTLPSLRWEEEQVRAHAP [E14W] | 3.9
91 | AVNLSVSTLPSLRSEEEQVRAHAP [E14S] | 4.98
92 | AVNLSVSTLPSLRLEEEQVRAHAP [E14L] | 4.51
93 | AVNLSVSTLPSLRVEEEQVRAHAP [E14V] | 4.39
94 | AVNLSVSTLPSLRCEEEQVRAHAP [E14C] | 4.16
